Results published in patent US20260008815A1, “CYCLIC PEPTIDE OR SALT THEREOF, AND USES THEREOF” (FUJIFILM Corporation, priority 2023, published 2026).
Bridge positions count the residues as written; N and C are the ends. Ends that are not written are not given here. COCH2 = acetyl group that carries the bridge

B1: cyclic peptide SEQ ID NO: 134 (peptide)
peptide: LCADQYDYLLQYVFWRTYK(COCH2)I
modifications: thioether 2-19
B2: cyclic peptide SEQ ID NO: 131 (peptide)
peptide: YCEENYLDPEQYQYFIYFK(COCH2)Y
modifications: thioether 2-19
B3: cyclic peptide SEQ ID NO: 143 (peptide)
peptide: NCEENYLDPEQYQYFIYFK(COCH2)Y
modifications: thioether 2-19
B4: cyclic peptide SEQ ID NO: 156 (peptide)
peptide: YCFENYLDPEQYQYFIYFK(COCH2)Y
modifications: thioether 2-19
B5: cyclic peptide SEQ ID NO: 163 (peptide)
peptide: YCDENYLDPEQYQYFIYFK(COCH2)Y
modifications: thioether 2-19
B6: cyclic peptide SEQ ID NO: 152 (peptide)
peptide: YCPENYLDPEQYQYFIYFK(COCH2)Y
modifications: thioether 2-19
B7: cyclic peptide SEQ ID NO: 164 (peptide)
peptide: YCRENYLDPEQYQYFIYFK(COCH2)Y
modifications: thioether 2-19
B8: cyclic peptide SEQ ID NO: 160 (peptide)
peptide: YCQENYLDPEQYQYFIYFK(COCH2)Y
modifications: thioether 2-19
B9: cyclic peptide SEQ ID NO: 145 (peptide)
peptide: SCEENYLDPEQYQYFIYFK(COCH2)Y
modifications: thioether 2-19
B10: cyclic peptide SEQ ID NO: 155 (peptide)
peptide: YCVENYLDPEQYQYFIYFK(COCH2)Y
modifications: thioether 2-19
B11: cyclic peptide SEQ ID NO: 153 (peptide)
peptide: YCLENYLDPEQYQYFIYFK(COCH2)Y
modifications: thioether 2-19
B12: cyclic peptide SEQ ID NO: 161 (peptide)
peptide: YCSENYLDPEQYQYFIYFK(COCH2)Y
modifications: thioether 2-19
B13: cyclic peptide SEQ ID NO: 158 (peptide)
peptide: YCWENYLDPEQYQYFIYFK(COCH2)Y
modifications: thioether 2-19
B14: cyclic peptide SEQ ID NO: 146 (peptide)
peptide: TCEENYLDPEQYQYFIYFK(COCH2)Y
modifications: thioether 2-19
B15: cyclic peptide SEQ ID NO: 136 (peptide)
peptide: GCEENYLDPEQYQYFIYFK(COCH2)Y
modifications: thioether 2-19
B16: cyclic peptide SEQ ID NO: 150 (peptide)
peptide: HCEENYLDPEQYQYFIYFK(COCH2)Y
modifications: thioether 2-19
B17: cyclic peptide SEQ ID NO: 162 (peptide)
peptide: YCTENYLDPEQYQYFIYFK(COCH2)Y
modifications: thioether 2-19
B18: cyclic peptide SEQ ID NO: 149 (peptide)
peptide: RCEENYLDPEQYQYFIYFK(COCH2)Y
modifications: thioether 2-19
B19: cyclic peptide SEQ ID NO: 137 (peptide)
peptide: PCEENYLDPEQYQYFIYFK(COCH2)Y
modifications: thioether 2-19
B20: cyclic peptide SEQ ID NO: 141 (peptide)
peptide: FCEENYLDPEQYQYFIYFK(COCH2)Y
modifications: thioether 2-19
B21: cyclic peptide SEQ ID NO: 138 (peptide)
peptide: LCEENYLDPEQYQYFIYFK(COCH2)Y
modifications: thioether 2-19
B22: cyclic peptide SEQ ID NO: 154 (peptide)
peptide: YCIENYLDPEQYQYFIYFK(COCH2)Y
modifications: thioether 2-19
B23: cyclic peptide SEQ ID NO: 142 (peptide)
peptide: WCEENYLDPEQYQYFIYFK(COCH2)Y
modifications: thioether 2-19
B24: cyclic peptide SEQ ID NO: 139 (peptide)
peptide: ICEENYLDPEQYQYFIYFK(COCH2)Y
modifications: thioether 2-19
B25: cyclic peptide SEQ ID NO: 140 (peptide)
peptide: VCEENYLDPEQYQYFIYFK(COCH2)Y
modifications: thioether 2-19
B26: cyclic peptide SEQ ID NO: 165 (peptide)
peptide: YCHENYLDPEQYQYFIYFK(COCH2)Y
modifications: thioether 2-19
B27: cyclic peptide SEQ ID NO: 148 (peptide)
peptide: ECEENYLDPEQYQYFIYFK(COCH2)Y
modifications: thioether 2-19
B28: cyclic peptide SEQ ID NO: 159 (peptide)
peptide: YCNENYLDPEQYQYFIYFK(COCH2)Y
modifications: thioether 2-19
B29: cyclic peptide SEQ ID NO: 157 (peptide)
peptide: YCYENYLDPEQYQYFIYFK(COCH2)Y
modifications: thioether 2-19
B30: cyclic peptide SEQ ID NO: 147 (peptide)
peptide: DCEENYLDPEQYQYFIYFK(COCH2)Y
modifications: thioether 2-19
B31: cyclic peptide SEQ ID NO: 151 (peptide)
peptide: YCGENYLDPEQYQYFIYFK(COCH2)Y
modifications: thioether 2-19
B32: cyclic peptide SEQ ID NO: 144 (peptide)
peptide: QCEENYLDPEQYQYFIYFK(COCH2)Y
modifications: thioether 2-19
B33: cyclic peptide SEQ ID NO: 135 (peptide)
peptide: QCTYLAQYLVERYHLTK(COCH2)T
modifications: thioether 2-17
B34: cyclic peptide SEQ ID NO: 43 (peptide)
peptide: HCNANFVYQQQYLYLLQYK(COCH2)L
modifications: thioether 2-19 (inferred)
B35: cyclic peptide SEQ ID NO: 133 (peptide)
peptide: ECLGNYFSHEQYQYLLQYK(COCH2)I
modifications: thioether 2-19

target: T1, Recombinant Human FGFR2 alpha (IIIc) Fc Chimera Protein, CF (R&D systems, 712-FR-050) (human, UniProt P21802 22-377); test: ELISA on plate-bound FGFR2-Fc
T1 construct: bought; not shown: Fc part of the chimera
Description: First, 5 ng of Recombinant Human FGFR2 alpha (IIIc) Fc Chimera Protein (R&D systems, 712-FR-050) was immobilized in each well of a 96-well plate, and blocked with Pierce Protein-Free (PBS) Blocking Buffer (Thermo, 37572), and a peptide diluted with Can Get Signal Immunoreaction Enhancer Solution I (TOYOBO, NKB-101) was then added and reacted at room temperature for 3 hours. After washing with 0.05% Tween 20-containing phosphate buffered saline (PBS), an anti-Myc antibody (Cell Signaling, 14038S) diluted with Can Get Signal Immunoreaction Enhancer Solution II (TOYOBO, NKB-101) was added and reacted at room temperature for 2 hours. After washing with 0.05% Tween 20-containing PBS, SuperSignal ELISA Femto Substrate (Thermo, 37075) was added, and the luminescence amount was measured. The dose-response relationship was calculated from using the difference between the luminescence amount in the well in which FGFR was immobilized and the luminescence amount in the well in which FGFR was not immobilized, and the concentration of the peptide at the time of reaction, and the binding affinity to FGFR was evaluated according to the following evaluation criteria. The evaluation result preferably satisfies the evaluation criteria A, B, or C.

T1 sequence (P21802 22-377, change not shown): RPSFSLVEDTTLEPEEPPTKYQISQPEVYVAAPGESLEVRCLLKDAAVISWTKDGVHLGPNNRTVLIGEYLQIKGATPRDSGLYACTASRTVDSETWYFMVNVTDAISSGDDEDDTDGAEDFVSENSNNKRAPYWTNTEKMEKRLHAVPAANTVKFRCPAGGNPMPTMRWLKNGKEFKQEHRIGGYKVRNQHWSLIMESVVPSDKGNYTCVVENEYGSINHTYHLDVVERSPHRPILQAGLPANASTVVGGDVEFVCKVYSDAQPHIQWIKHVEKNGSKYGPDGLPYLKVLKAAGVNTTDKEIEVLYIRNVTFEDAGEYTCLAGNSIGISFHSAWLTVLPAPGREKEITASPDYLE

Row | ELISA luminescence signal at 10 nmol/L peptide, relative to SEQ ID NO: 47 (=1) [ratio] | Binder
1 | 0.1 to 0.5 | B1
2 | ≥ 0.7 | B2
3 | ≥ 0.7 | B3
4 | ≥ 0.7 | B4
5 | ≥ 0.7 | B5
6 | ≥ 0.7 | B6
7 | ≥ 0.7 | B7
8 | ≥ 0.7 | B8
9 | ≥ 0.7 | B9
10 | ≥ 0.7 | B10
11 | ≥ 0.7 | B11
12 | ≥ 0.7 | B12
13 | ≥ 0.7 | B13
14 | ≥ 0.7 | B14
15 | ≥ 0.7 | B15
16 | ≥ 0.7 | B16
17 | ≥ 0.7 | B17
18 | ≥ 0.7 | B18

Row | ELISA luminescence signal at 10 nmol/L peptide, relative to SEQ ID NO: 47 (=1) [ratio] | Binder
19 | ≥ 0.7 | B19
20 | ≥ 0.7 | B20
21 | ≥ 0.7 | B21
22 | ≥ 0.7 | B22
23 | ≥ 0.7 | B23
24 | ≥ 0.7 | B24
25 | ≥ 0.7 | B25
26 | ≥ 0.7 | B26
27 | ≥ 0.7 | B27
28 | ≥ 0.7 | B28
29 | ≥ 0.7 | B29
30 | ≥ 0.7 | B30
31 | ≥ 0.7 | B31
32 | ≥ 0.7 | B32
33 | 0.1 to 0.5 | B33
34 | 0.5 to 0.7 | B34
35 | ≥ 0.7 | B35
